Data: publication PMC7497631, “Role of Membrane Tension Sensitive Endocytosis and Rho GTPases in the Uptake of the Alzheimer’s Disease Peptide Aβ(1-42)” (ACS Chemical Neuroscience, 2020)

Legend:
SH-SY5Y cells [1] = details: cited from earlier work; for internalization in presence of inhibitors of actin polymerization: SH-SY5Y cells
Source text: Rho GTPases are important regulators of CIE (Figure 1).[30],[41] […] Since Cdc42 (and other Rho GTPases) regulate the actin cytoskeleton,[74] this would be consistent with our previously published result that inhibitors of actin polymerization reduced Aβ(1-40) and Aβ(1-42) but not Trf internalization in SH-SY5Y cells.[13] To f ... || We repeated this set of experiments, exploring also the Rho GTPases Rac1 and RhoA. Overexpression of EGFP-tagged Rac1 (DA Q61L, WT, and DN T17N) induced lamellipodia-like morphologies in transfected cells as expected from the literature.[74] […] The latter result is contrasting observations by ... || We report that Aβ(1-42) uptake into SH-SY5Y cells is sensitive to osmotic pressure-induced alterations in membrane tension, which points to the involvement of CLICs or macropinocytosis. Importantly, Aβ(1-42) behaves distinctively different than the CME-cargo Trf, but also dextran, which is an unspecific fluid-phase endocytosis marker.

SH-SY5Y cells [2] = experiment: Cellular uptake quantified by flow cytometry during changes in membrane tension; format: cell-based, human; details: for cellular uptake during the recovery phase relative to uptake in isotonic media: 2 μM HF488-labeled Aβ(1-42) or 250 μg/mL AF647-labeled dextran 10 kDa, 10 min in isotonic medium after 10 min hypotonic (75% MQ), serum-free medium + 2% B-27, flow cytometry mean fluorescence, N = 8, n = 3–4; for effect of hypertonic media on uptake: addition of 100 mM NaCl to the culture medium, 2 μM HF488-Aβ(1-42), 250 μg/mL AF647-dextran 10 kDa, 10 min, flow cytometry, N = 4, n = 3–4
Source text: Flow cytometry was used for quantification of cellular uptake.

SH-SY5Y cells [3] = experiment: Live cell confocal microscopy of uptake during changes in membrane tension; details: 2 μM HF488-Aβ(1-42); for internalization during hypotonic conditions: 10 min in hypotonic medium (75% MQ water, 25% cell culture medium); for internalization during hypotonic conditions / internalization during recovery (re-exposure to isotonic conditions): 250 μg/mL AF647-dextran 10 kDa or 5 μg/mL AF488-Trf; for internalization during recovery (re-exposure to isotonic conditions): 10 min in isotonic medium after 10 min hypotonic (75% MQ); for internalization under isotonic conditions: 10 min in isotonic medium, 250 μg/mL AF647-dextran 10 kDa
Experimental: SH-SY5Y cells were incubated with Aβ(1-42), Trf, and dextran 10 kDa while exposed to changes in membrane tension and analyzed by confocal microscopy and flow cytometry. For uptake at isotonic conditions, the cells were washed 1× with serum-free medium, incubated with either 2 μM HF488-labeled Aβ(1-42), 5 μg/mL AF488-labeled Trf, or 250 μg/mL AF647-labeled dextran 10 kDa in serum-free medium with the addition of 2% B-27 for 10 min, washed 1× with serum free medium for microscopy, or 3×/2 min on ice with either ice-cold serum-free medium (Aβ(1-42) and dextran) or acidic buffer (0.1 M glycine-HCl buffer pH 2.5 with 150 mM NaCl; Trf)[80] and harvested for analysis by flow cytometry. […] Lastly, cells analyzed for uptake at recovery conditions were first pretreated with isotonic medium for 10 min followed by treatment in hypotonic medium for 10 min, whereupon they were exposed to the peptides and dextran in isotonic medium for 10 min.

SH-SY5Y cells [4] = experiment: Cellular uptake by flow cytometry in cells transfected with EGFP-tagged Rho GTPases (Cdc42, Rac1, RhoA); details: for uptake on overexpression of DA EGFP-Cdc42 Q61L relative to nontransfected cells / uptake on overexpression of WT or DN EGFP-Cdc42 relative to nontransfected cells: ~24 h post-transfection; for uptake on overexpression of DA EGFP-Cdc42 Q61L relative to nontransfected cells: 1 μM HF647-Aβ(1-42) 1 h, 5 μg/mL AF647-Trf 5 min (N = 3, n = 4) or 125 μg/ml AF647-dextran 10 kDa 1 h (n = 4); for uptake on overexpression of WT or DN EGFP-Cdc42 relative to nontransfected cells / uptake on overexpression of all variants of EGFP-tagged RhoA (DA Q63L, WT, DN T19N) relative to nontransfected cells: 1 μM HF647-Aβ(1-42) 1 h or 5 μg/mL AF647-Trf 5 min; for uptake on overexpression of EGFP-tagged Rac1 (DA Q61L, WT, DN T17N) relative to nontransfected cells: 1 μM HF647-Aβ(1-42) 1 h (N = 3, n = 4) or 125 μg/ml AF647-dextran 10 kDa 1 h (n = 4); for uptake on overexpression of all variants of EGFP-tagged RhoA (DA Q63L, WT, DN T19N) relative to nontransfected cells: ~30 h post-transfection, N = 4, n = 4
Experimental: SH-SY5Y cells were passaged 2 days prior to transfection, grown to ∼70% confluency, and transfected with plasmids encoding for Rho GTPases (EGFP-tagged DA, WT, and DN variants of Cdc42, Rac1, and RhoA; see the above section Reagents) by electroporation using a Neon Transfection System (Invitrogen, Carlsbad, CA), following the protocol provided by the manufacturer and applying a single pulse of 1 100 V with a pulse width of 50 ms. The cells were transfected using 1 μg of plasmid DNA/100 000 cells in a 10 μL Neon Tip or 10 μg of plasmid DNA/10^6 cells in a 100 μL Neon Tip and plated immediately after. Based on the initial experiments, the analysis was set to ∼24 h, ∼27 h, and ∼30 h post-transfection for Cdc42, Rac1, and RhoA, respectively, by evaluating the time it took until the cells expressed the proteins and adapted the expected morphologies.
Flow cytometry was used for quantification of cellular uptake. […] All samples were kept on ice until they were analyzed on a Guava EasyCyte 8HT (Millipore, Darmstadt, Germany) that automatically retrieves samples from a 96-well plate. In order to exclude effects due to difference in delay time, we used mixed order of analysis, loading only a few samples at a time with the remaining samples kept on ice. Only the central cell cluster on the forward/side scatter (FSC/SSC) dot plot was analyzed, and for each sample 5 000 cells from within the gate were counted. […] The mean cellular uptake or level of Rho GTPase expression was estimated as the average fluorescence intensity of all cells within the gate. The mean cellular uptake was baseline corrected by subtracting the signal recorded for untreated cells. Each cell treatment was performed in three or four technical replicates (n = 3–4) and repeated on at least two separate occasions (N ≥ 2).
Statistical analysis was performed by matched sample ANOVA using GraphPad Prism software (GraphPad, San Diego, CA) on data that had been normalized so that the uptake in nontransfected cells was 100% for the individual experiments. Matched sample ANOVA was followed by multiple comparisons with the Bonferroni posthoc test to test for differences in mean peptide uptake between nontransfected cells and uptake at the different transfection efficiencies. This means that the reported individual p-values have been adjusted for the number of comparisons that were relevant to the experiment.

| Compound | effect of macropinocytosis inhibitor on the uptake of Aβ(1-40) and Aβ(1-42) (SH-SY5Y cells [1]) | internalization in presence of inhibitors of actin polymerization (SH-SY5Y cells [1]) | cellular uptake during the recovery phase relative to uptake in isotonic media (SH-SY5Y cells [2]) | effect of hypertonic media on uptake (SH-SY5Y cells [2]) | internalization during hypotonic conditions (SH-SY5Y cells [3]) | internalization during recovery (re-exposure to isotonic conditions) (SH-SY5Y cells [3]) | internalization under isotonic conditions (SH-SY5Y cells [3]) | uptake on overexpression of DA EGFP-Cdc42 Q61L relative to nontransfected cells (SH-SY5Y cells [4]) | uptake on overexpression of WT or DN EGFP-Cdc42 relative to nontransfected cells (SH-SY5Y cells [4]; N = 3, n = 4) | uptake on overexpression of EGFP-tagged Rac1 (DA Q61L, WT, DN T17N) relative to nontransfected cells (SH-SY5Y cells [4]; ~27 h post-transfection) | uptake on overexpression of all variants of EGFP-tagged RhoA (DA Q63L, WT, DN T19N) relative to nontransfected cells (SH-SY5Y cells [4]) | other results |
| --- | --- | --- | --- | --- | --- | --- | --- | --- | --- | --- | --- | --- |
| Oc1ccc2ccccc2c1SSc1c(O)ccc2ccccc12 [IPA-3] | reductions | – | – | – | – | – | – | – | – | – | – | – |
| COC[C@H]1OC(=O)c2coc3c2[C@@]1(C)C1=C(C3=O)[C@@H]2CCC(=O)[C@@]2(C)C[C@H]1OC(C)=O [wortmannin] | reductions | – | – | – | – | – | – | – | – | – | – | – |
| Aβ(1-40): Amyloid-β isoform; uptake results quoted from the authors' earlier work | – | reduced | – | – | – | – | – | – | – | – | – | – |
| Aβ(1-42): Synthetic Aβ(1-42) peptide, conjugated to the HiLyte Fluor HF488 or HF647 at the N-terminus, from Anaspec; applied in highly monomeric form | – | reduced | doubles | did not increase | little or no internalization | resumed to internalize | formation of small endosomal vesicles containing Aβ(1-42) was observed | reduced | no effect | None of the Rac1 variants had any effect | reduced | internalization by NIH-3T3 fibroblasts compared with CHO and SH-SY5Y (SH-SY5Y cells [1]): more |
| Trf: AlexaFluor488- and AlexaFluor647-labeled Transferrin, ligand of clathrin-mediated endocytosis | – | not | – | – | blocked | remained low | – | reduced | no effect | – | reduced | uptake in cells with the highest concentration of WT and DN Rac1 (SH-SY5Y cells [4]; ~27 h post-transfection, 5 μg/mL AF488-labeled Trf 5 min, high gate, N = 3, n = 4): reduction; uptake in cells with medium expression level of DA Rac1 versus control (SH-SY5Y cells [4]; ~27 h post-transfection, 5 μg/mL AF488-labeled Trf 5 min, medium gate, N = 3, n = 4): slightly more |
| dextran | – | – | ~8 times | did not increase | little or no internalization | induced | low | unaffected | – | did not alter | – | reduction of uptake in cells expressing DA RhoA (SH-SY5Y cells [4]; ~30 h post-transfection with RhoA Q63L, 125 μg/ml AF647-labelled dextran 10 kDa 1 h, n = 4): up to 50% |
